The record followed here is the supplement of paper PMC10899765.

Holding throughout (conditions): 20 nM; 72 h
In data set [1] the test system is MCF10A. Nature of the data set: percent viability (nuclei count relative to siNT); higher = more viable cells. The procedure:
(§1)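 After 72 h, cells were fixed and stained with Hoechst and anti-fibrillarin, and nucleoli per nucleus were counted with CellProfiler. Values are plate-adjusted percent effect for the one-nucleolus and 5+ nucleoli phenotypes, normalised to siNT (0%) and to the positive controls siNOL11 or siKIF11 (100%), as the mean of biological triplicates. Percent viability is the nuclei count relative to siNT.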

The subject of data set [2] is MCF10A. Nature of the data set: 5+ nucleoli phenotype percent effect (relative to siNT 0% and siKIF11 100%); higher = more cells with five or more nucleoli. Here is the method:
as §1

Data set [3] concerns MCF10A. Kind of data set: one-nucleolus phenotype percent effect (relative to siNT 0% and siNOL11 100%); higher = more cells with one nucleolus (ribosome biogenesis inhibition). Here is the method:
as §1

Consider CACACACACACACACACGUAU [hsa-miR-8485], for which the percent viability in the data set with MCF10A [1] was 15.8%. Also, the “5+ nucleoli phenotype percent effect” value in the data set with MCF10A [2] was -36.9%. Further, the “one-nucleolus phenotype percent effect” value in the data set with MCF10A [3] stood at 57.6%.
In the case of CUAUUAAGGACAUUUGUGAUUC [hsa-miR-4477a], the percent viability in the data set with MCF10A [1] amounted to 32.6%. Besides, in the data set on MCF10A [2], the “5+ nucleoli phenotype percent effect” value was -13.7%. The “one-nucleolus phenotype percent effect” value in the data set with MCF10A [3] is -0.508%.
Consider “UCUGUGAGACCAAAGAACUACU [hsa-miR-4677-3p]”, for which the percent viability with MCF10A [1] was 28.6%. Also, the “5+ nucleoli phenotype percent effect” value in the data set on MCF10A [2] was -42.7%. Moreover, the “one-nucleolus phenotype percent effect” value in the data set with MCF10A [3] is 23.1%.
Turning to UCACGCGGAGAGAUGGCUUUG [hsa-miR-3186-3p], the percent viability in the data set on MCF10A [1] was determined as 20.7%. In addition, in the data set on MCF10A [2], the “5+ nucleoli phenotype percent effect” value was -13.4%. Besides, the “one-nucleolus phenotype percent effect” value in the data set with MCF10A [3] stood at 11.3%.
On to “UUUAACAUGGGGGUACCUGCUG [hsa-miR-302c-5p]”, for which the percent viability in the data set on MCF10A [1] is 121%. For the same sequence, the “5+ nucleoli phenotype percent effect” value in the data set on MCF10A [2] turned out to be 22.3%. In the data set with MCF10A [3], the “one-nucleolus phenotype percent effect” value was -8.1%.
With “CCUCCGUGUUACCUGUCCUCUAG [hsa-miR-3605-3p]”, in the data set with MCF10A [1], the percent viability stood at 92.7%. Also, in the data set with MCF10A [2], the “5+ nucleoli phenotype percent effect” value was -3.31%. The “one-nucleolus phenotype percent effect” value in the data set on MCF10A [3] is 0.086%.
Regarding CGUGCCACCCUUUUCCCCAG [hsa-miR-1227-3p], the percent viability in the data set on MCF10A [1] was determined as 93.4%. Moreover, the “5+ nucleoli phenotype percent effect” value with MCF10A [2] was -2.5%. Besides, in the data set on MCF10A [3], the “one-nucleolus phenotype percent effect” value was found to be 6.65%.
The like results for “UGGGGGUGGUCUCUAGCCAAGG [hsa-miR-6842-5p]” were, in that order, 9.46%, -11.8% and -7.28%.
The like results for UGAGGUAGUAGGUUGUAUGGUU [hsa-let-7c] were, in that order, 25.9%, 56.3% and -17.3%.
The like results for UCUGGCUAUCUCACGAGACUGU [hsa-miR-4794] were, in that order, 35.9%, 3.59% and 26.9%.
In the case of “CAGCCAGCCCCUGCUCACCCCU [hsa-miR-6858-3p]”, in the data set with MCF10A [1], the percent viability amounted to 30.6%. For the same sequence, in the data set on MCF10A [2], the “5+ nucleoli phenotype percent effect” value is 3.04%. Also, the “one-nucleolus phenotype percent effect” value with MCF10A [3] was 16.5%.
As to GCUGGUGCAAAAGUAAUGGCGG [hsa-miR-548q], in the data set on MCF10A [1], the percent viability worked out at 30.5%. Besides, the “5+ nucleoli phenotype percent effect” value in the data set on MCF10A [2] was -16.7%. The “one-nucleolus phenotype percent effect” value in the data set with MCF10A [3] worked out at 46%.
The like results for UCUCUUCAUCUACCCCCCAG [hsa-miR-6515-3p] were, in that order, 85.2%, -2.57% and 4.68%.
In the case of “ACCAAGUCUGCGUCAUCCUCUC [hsa-miR-3691-3p]”, the percent viability in the data set with MCF10A [1] is 63.2%. Further, in the data set on MCF10A [2], the “5+ nucleoli phenotype percent effect” value was 0.0313%. For the same sequence, in the data set on MCF10A [3], the “one-nucleolus phenotype percent effect” value was -5.26%.
As to CCCUUGGGUCUGAUGGGGUAG [hsa-miR-3189-3p], the percent viability in the data set on MCF10A [1] came to 25.3%. The “5+ nucleoli phenotype percent effect” value in the data set with MCF10A [2] was -6.22%. The “one-nucleolus phenotype percent effect” value in the data set with MCF10A [3] is 15.4%.
For the sequence UUUGGCACUAGCACAUUUUUGCU [hsa-miR-96-5p], the percent viability in the data set with MCF10A [1] came out at 28.4%. In addition, the “5+ nucleoli phenotype percent effect” value in the data set with MCF10A [2] was 16.6%. Besides, the “one-nucleolus phenotype percent effect” value with MCF10A [3] worked out at 19.4%.
ACUAAAGGAUAUAGAAGGUUUU [hsa-miR-4509]: in the data set on MCF10A [1], the percent viability was 103%. Moreover, the “5+ nucleoli phenotype percent effect” value with MCF10A [2] was found to be 5.5%. Also, in the data set with MCF10A [3], the “one-nucleolus phenotype percent effect” value is -25.3%.
For AGGUGUGUCUGUAGAGUCC [hsa-miR-3650] the same measures were 19.8%, -24.7% and 45.8%.
The like results for “AUGCAGGCCUGUGUACAGCACU [hsa-miR-6811-5p]” were, in that order, 19.1%, -31.3% and 57%.
The like results for “GCUGGUUUCAUAUGGUGGUUUAGA [hsa-miR-29b-1-5p]” were, in that order, 100%, 38.2% and -17.6%.
